Reference: patent US20240181022A1, “AMURINS LYSINS, AND LYSIN-ANTIMICROBIAL PEPTIDE (AMP) CONSTRUCTS ACTIVE AGAINST GRAM-NEGATIVE BACTERIA” (priority 2021, published 2024)
≈ marks a conversion by molar mass, not a printed value. Read-outs that look alike come from different tables or passages of the source.

Columns and labels:
B. multivorans = test: MIC by broth microdilution against B. multivorans; format: cell-based, Burkholderia multivorans; details: B. multivorans isolates
Description: (§1) MIC values were determined using a modification of the standard broth microdilution reference method defined by the Clinical and Laboratory Standards Institute (CLSI), CLSL. 2015. Methods for Dilution Antimicrobial Susceptibility Tests for Bacteria That Grow Aerobically; Approved Standard-10th Edition. Clinical and Laboratory Standards Institute, Wayne, PA. The modification was based on the replacement of Mueller Hinton Broth with either CAA media (with and without NaCl) or CAA supplemented with 2.5% human serum. MIC is the minimum concentration of peptide sufficient to suppress at least 80% of the bacterial growth compared to control.
(§2) Based on these nine most prevalent strains, direct lytic agents, including GN370, AM1, AM2, and AM3, were evaluated against various isolates from each of the 9 strains. MICs and MBECs (Example 3) were determined, and a sputum inhibition test was conducted, as described below in Example 5.
(§3) The MICs for were determined as described below using the broth microdilution method for meropenem, GN370, AM1, AM2, and AM3. The results are shown below in Tables 8-12.

S. maltophilia [1] = details: for MIC: S. maltophilia test organism of the sputum time-kill assay
S. maltophilia [2] = test: Time-kill assay in cystic fibrosis patient sputum, S. maltophilia; format: cell-based, Stenotrophomonas maltophilia
Excerpt: Sputum from 5 cystic fibrosis patients was pooled. The resulting mixture was not filtered, as it was very dense and not amenable to sterilization by filtration. Sputum is known to be a complex mixture of DNA, carbohydrates, and lipids ([…], 2016). As used herein, the term “sputum” refers to the mucus present in the respiratory tract of an animal, such as a human. Sputum may increase in thickness due to the irritation or infection, including bacterial infection, and in some instances, may be expelled by the animal while coughing. In certain instances, cystic fibrosis may be characterized by the presence of a thick, sticky mucus or sputum present in the lungs of cystic fibrosis patients. The activity of GN370, AM1, AM2, AM3, and meropenem was determined in the sputum using a time-kill assay format as disclosed in Zhang et al., Antimicrobial peptide therapeutics for cystic fibrosis, Antimicrobial Agents Chemother. 2005; 49(7):2921-2927. […] Untreated controls were included in addition to pretreatment plating (t=0) for a baseline CFU determination. Activity was also determined in the absence of sputum for comparison to activity observed in the presence of sputum.

A. ruhlandii = test: MIC by broth microdilution against A. ruhlandii; format: cell-based, Achromobacter ruhlandii; details: A. ruhlandii isolates
Description: as §1, §2, §3

S. maltophilia [3] = test: Serial passage resistance development study, S. maltophilia; format: cell-based, Stenotrophomonas maltophilia; details: S. maltophilia, day 28, triplicate
P. apista = format: cell-based, Pandoraea apista; details: P. apista (15); 2-hour treatment
Description: (§4) The MBEC (after 2-hour treatments) was determined as described in Jones and Wozniak, PsI Produced by Mucoid Pseudomonas aeruginosa Contributes to the Establishment of Biofilms and Immune Evasion, Am. Soc. Microbiol. 2017, 8(3):e00864-17. Meropenem and tobramycin were included as controls and were both poorly active, with MBEC90 values of >256 μg/mL (data not shown).

B. cenocepacia = format: cell-based, Burkholderia cenocepacia; details: B. cenocepacia (15); 2-hour treatment
Description: as §4

[4] = P. aeruginosa test organism of the sputum time-kill assay
[5] = MDR P. aeruginosa isolates (n = 13)
[6] = Pseudomonas aeruginosa, AR Bank, N 67
[7] = Pseudomonas aeruginosa, Weill Cornell, N 55
[8] = Pseudomonas aeruginosa, all isolates, N 122
[9] = all tested isolates, Tables 8-12
[10] = carbapenem-resistant P. aeruginosa isolates (n = 12)
[11] = mucoid P. aeruginosa isolates (n = 11)
[12] = α-hemolytic P. aeruginosa isolates (n = 13)
[13] = MDR S. maltophilia isolates (n = 8)
[14] = Stenotrophomonas maltophilia, N 12 (Table 26)
[15] = carbapenem-resistant S. maltophilia isolates (n = 21)

C[C@@H](O)[C@H]1C(=O)N2C(C(=O)O)=C(S[C@@H]3CN[C@H](C(=O)N(C)C)C3)[C@H](C)[C@H]12 [meropenem, reference compound]
MIC50 (B. multivorans): 8 µg/mL (≈ 20.9 µM)
MIC90 (B. multivorans): 32 µg/mL (≈ 83.4 µM)
MIC50 (P. aeruginosa; P. aeruginosa isolates): 4 µg/mL (≈ 10.4 µM)
MIC90 (P. aeruginosa; P. aeruginosa isolates): 32 µg/mL (≈ 83.4 µM)
MIC (P. aeruginosa; [4]): (MIC = 0.125)
MIC (P. aeruginosa; […], before serial passage): 0.5 µg/mL (≈ 1.3 µM)
MIC50 (S. maltophilia [1]; S. maltophilia isolates): > 32 µg/mL
MIC90 (S. maltophilia [1]; S. maltophilia isolates): > 32 µg/mL
MIC (S. maltophilia [1]): Meropenem (MIC = 32)
activity in the presence and absence of sputum (S. maltophilia [2]): poorly active
Log10 CFU/mL of sputum (S. maltophilia [2]; absence of sputum, 1 hr): 5.04 Log10 CFU/mL of sputum
Log10 CFU/mL of sputum (S. maltophilia [2]; absence of sputum, 3 hr): 4.7 Log10 CFU/mL of sputum
Log10 CFU/mL of sputum (S. maltophilia [2]; absence of sputum, 24 hr): 7.95 Log10 CFU/mL of sputum
Log10 CFU/mL of sputum (S. maltophilia [2]; presence of 10% sputum, 1 hr): 3.78 Log10 CFU/mL of sputum
Log10 CFU/mL of sputum (S. maltophilia [2]; presence of 10% sputum, 3 hr): 4.26 Log10 CFU/mL of sputum
Log10 CFU/mL of sputum (S. maltophilia [2]; presence of 10% sputum, 24 hr): 6.3 Log10 CFU/mL of sputum
MIC50 (A. ruhlandii): 16 µg/mL (≈ 41.7 µM)
MIC90 (A. ruhlandii): > 32 µg/mL

B1: GN370: lysin-AMP construct, SEQ ID NO: 149: MIDR, FIRL and NPTH moieties N-terminal to GN202 lysin (protein)
chain: MIDRFIRLNPTHGPRRPRRPGRRAPVRTSQRGIDLIKSFEGLRLSAYQDSVGVWTIGYGTTRGVTRYMTITVEQAERMLSNDIQRFEPELDRLAKVPLNQNQWDALMSFVYNLGAANLASSTLLDLLNKGDYQGAADQFPHWVNAGGKRLDGLVKRRAAERALFLEPLS
modifications: GN370 lysin
change in MIC over serial passage (S. maltophilia [3]): no increase in MIC
MBEC50 (P. apista): 32 µg/mL
MBEC90 (P. apista): 64 µg/mL
MBEC Range (P. apista): 8 to 64 µg/mL
MIC50 (B. multivorans): 16 µg/mL
MIC90 (B. multivorans): > 32 µg/mL
MBEC50 (B. cenocepacia): 256 µg/mL
MIC50 (P. aeruginosa; [5]): 0.125 µg/mL
MIC90 (P. aeruginosa; [5]): 0.5 µg/mL
MIC Range (P. aeruginosa; MDR P. aeruginosa isolates (n = 13), in µg/mL): 0.0625-0.5
MIC (P. aeruginosa; P. aeruginosa ATCC 27853 (head of Table 19)): 1 µg/mL
MIC (P. aeruginosa; P. aeruginosa PA25): PA25 (MIC = 2 μg/mL)
MIC90 (P. aeruginosa; P. aeruginosa clinical and resistant isolates): 2 µg/mL
MIC50 (P. aeruginosa; P. aeruginosa isolates): 0.25 µg/mL
MIC90 (P. aeruginosa; P. aeruginosa isolates): 0.5 µg/mL
MIC Range (P. aeruginosa; P. aeruginosa isolates, in µg/mL): 0.06-1
MIC (P. aeruginosa; [4]): (MIC = 0.5)
MIC50 (P. aeruginosa; [6]): 1 µg/mL
MIC90 (P. aeruginosa; [6]): 2 µg/mL
MIC Range (P. aeruginosa; [6]): 0.25 to 2 µg/mL
MIC50 (P. aeruginosa; [7]): 1 µg/mL
MIC90 (P. aeruginosa; [7]): 2 µg/mL
MIC Range (P. aeruginosa; [7]): 0.25 to 2 µg/mL
MIC50 (P. aeruginosa; [8]): 1 µg/mL
MIC90 (P. aeruginosa; [8]): 2 µg/mL
MIC Range (P. aeruginosa; [8]): 0.25 to 2 µg/mL
MIC (P. aeruginosa; XDR P. aeruginosa strain AR-769): 2 µg/mL
MIC (P. aeruginosa; […], before serial passage): 1 µg/mL
activity (MIC) against P. aeruginosa isolates (P. aeruginosa; [9]): highly active
GN370 MIC50 (P. aeruginosa; [10]): 0.25 µg/mL
GN370 MIC90 (P. aeruginosa; [10]): 0.5 µg/mL
GN370 MIC Range (P. aeruginosa; carbapenem-resistant P. aeruginosa isolates (n = 12), in µg/mL): 0.0625-1
MIC50 (P. aeruginosa; [11]): 0.25 µg/mL
MIC90 (P. aeruginosa; [11]): 1 µg/mL
MIC Range (P. aeruginosa; mucoid P. aeruginosa isolates (n = 11), in µg/mL): 0.0625-1
MIC50 (P. aeruginosa; [12]): 0.25 µg/mL
MIC90 (P. aeruginosa; [12]): 1 µg/mL
MIC Range (P. aeruginosa; α-hemolytic P. aeruginosa isolates (n = 13), in µg/mL): 0.0625-1
MIC50 (S. maltophilia [1]; [13]): 0.25 µg/mL
MIC90 (S. maltophilia [1]; [13]): 0.5 µg/mL
MIC Range (S. maltophilia [1]; MDR S. maltophilia isolates (n = 8), in µg/mL): 0.0625-0.5
MIC50 (S. maltophilia [1]; S. maltophilia isolates): 0.5 µg/mL
MIC90 (S. maltophilia [1]; S. maltophilia isolates): 2 µg/mL
MIC Range (S. maltophilia [1]; S. maltophilia isolates, in µg/mL): 0.03-2
MIC (S. maltophilia [1]): GN370 (MIC = 0.5)
MIC50 (S. maltophilia [1]; [14]): 2 µg/mL
MIC90 (S. maltophilia [1]; [14]): 8 µg/mL
MIC Range (S. maltophilia [1]; [14]): 0.25 to 8 µg/mL
GN370 MIC (S. maltophilia [1]; XDR S. maltophilia isolate AU29729): 1 µg/mL
GN370 MIC (S. maltophilia [1]; XDR S. maltophilia isolate AU29873): 0.5 µg/mL
GN370 MIC (S. maltophilia [1]; XDR S. maltophilia isolate AU30243): 1 µg/mL
GN370 MIC (S. maltophilia [1]; XDR S. maltophilia isolate AU30793): 1 µg/mL
GN370 MIC (S. maltophilia [1]; XDR S. maltophilia isolate AU32079): 0.03125 µg/mL
GN370 MIC (S. maltophilia [1]; XDR S. maltophilia isolate AU33199): 0.0625 µg/mL
GN370 MIC (S. maltophilia [1]; XDR S. maltophilia isolate AU33860): 2 µg/mL
GN370 MIC (S. maltophilia [1]; XDR S. maltophilia isolate AU33921): 2 µg/mL
GN370 MIC (S. maltophilia [1]; XDR S. maltophilia isolate AU34723): 2 µg/mL
GN370 MIC (S. maltophilia [1]; XDR S. maltophilia isolate AU35419): 2 µg/mL
GN370 MIC (S. maltophilia [1]; XDR S. maltophilia isolate AU35661): 0.0625 µg/mL
GN370 MIC (S. maltophilia [1]; XDR S. maltophilia isolate AU36631): 0.5 µg/mL
GN370 MIC (S. maltophilia [1]; XDR S. maltophilia isolate AU36888): 0.25 µg/mL
GN370 MIC (S. maltophilia [1]; XDR S. maltophilia isolate AU37239): 1 µg/mL
GN370 MIC (S. maltophilia [1]; XDR S. maltophilia isolate AU37260): 0.5 µg/mL
GN370 MIC (S. maltophilia [1]; XDR S. maltophilia isolate AU37689): 0.25 µg/mL
GN370 MIC (S. maltophilia [1]; XDR S. maltophilia isolate AU37737): 2 µg/mL
MIC50 (S. maltophilia [1]; XDR isolates of S. maltophilia): 1 µg/mL
MIC Range (S. maltophilia [1]; XDR isolates of S. maltophilia, in µg/mL): 0.03125-2
activity (MIC) against S. maltophilia isolates (S. maltophilia [1]; [9]): highly active
GN370 MIC50 (S. maltophilia [1]; [15]): 0.5 µg/mL
GN370 MIC90 (S. maltophilia [1]; [15]): 2 µg/mL
GN370 MIC Range (S. maltophilia [1]; carbapenem-resistant S. maltophilia isolates (n = 21), in µg/mL): 0.03-2
effect of sputum on antibacterial activity (S. maltophilia [2]; 10% CF sputum vs no sputum): none of GN370, AM1, AM2, and AM3 was inhibited
Log10 CFU/mL of sputum (S. maltophilia [2]; absence of sputum, 1 hr): 2.3 Log10 CFU/mL of sputum
Log10 CFU/mL of sputum (S. maltophilia [2]; absence of sputum, 3 hr): 2.3 Log10 CFU/mL of sputum
Log10 CFU/mL of sputum (S. maltophilia [2]; absence of sputum, 24 hr): 2.3 Log10 CFU/mL of sputum
Log10 CFU/mL of sputum (S. maltophilia [2]; presence of 10% sputum, 1 hr): 3.48 Log10 CFU/mL of sputum
Log10 CFU/mL of sputum (S. maltophilia [2]; presence of 10% sputum, 3 hr): 2.3 Log10 CFU/mL of sputum
Log10 CFU/mL of sputum (S. maltophilia [2]; presence of 10% sputum, 24 hr): 2.3 Log10 CFU/mL of sputum
CFU reduction by 3 hours (S. maltophilia [2]; time-kill): ~2 log10
killing by 24 hours (S. maltophilia [2]; time-kill): complete killing
MIC50 (A. ruhlandii): 2 µg/mL
MIC90 (A. ruhlandii): > 32 µg/mL
